Data reported in patent US20190062395A1 (MEDICENNA THERAPEUTICS, published 2019).

Molecular target: T1, interleukin 2 receptor beta (IL-2Rβ) (UniProt P14784 27-240, limits assumed)
T1 construct: also called CD122
T1 sequence (looked up): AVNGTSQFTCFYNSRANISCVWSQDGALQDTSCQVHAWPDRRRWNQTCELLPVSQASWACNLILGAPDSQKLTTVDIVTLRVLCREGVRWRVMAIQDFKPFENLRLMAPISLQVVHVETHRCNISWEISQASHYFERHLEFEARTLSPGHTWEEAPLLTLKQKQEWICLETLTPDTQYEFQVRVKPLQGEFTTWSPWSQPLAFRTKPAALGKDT
Experiment: method not stated; Kd column of the H9 substitution matrix; target not given

Kd: 1.3 nM
B1: H9 (IL-2 mutein having the amino acid substitutions L80F, R81D, L85V, I86V, and I92F, numbered in accordance with wild-type human IL-2 of SEQ ID NO:2) (ligand)
chain: APTSSSTKKTQLQLEHLLLDLQMILNGINNYKNPKLTRMLTFKFYMPKKATELKHLQCLEEELKPLEEVLNLAQSKNFHFDPRDVVSNINVFVLELKGSETTFMCEYADETATIVEFLNRWITFCQSIISTLT
notes: also called IL-2 superkine
